For nine variants, screen value results are on record in article PMC12711580, “Florigen activation complex forms via multifaceted assembly in Arabidopsis” (Nature, 2025).

B1: MBP–FDc(T282E), N-terminal MBP-fused, truncated FD (amino acids 215–285) [Arabidopsis thaliana] / itself (parent)
chain: NRRHKRMIKNRESAARSRARKQAYTNELELEVAHLQAENARLKRQQDQLKMAAAIQQPKKNTLQRSSEAPF
B2: MBP–FDc(T282E), N-terminal MBP-fused, truncated FD (amino acids 215–285) [Arabidopsis thaliana] / GRF7 (14-3-3ν), recombinant [Arabidopsis thaliana] (parent)
chain 1: B1 chain
chain 2: MSSSREENVYLAKLAEQAERYEEMVEFMEKVAKTVDTDELTVEERNLLSVAYKNVIGARRASWRIISSIEQKEESRGNDDHVSIIKDYRGKIETELSKICDGILNLLDSHLVPTASLAESKVFYLKMKGDYHRYLAEFKTGAERKEAAESTLVAYKSAQDIALADLAPTHPIRLGLALNFSVFYYEILNSPDRACSLAKQAFDEAISELDTLGEESYKDSTLIMQLLRDNLTLWNSDINDEAGGDEIKEASKHEPEEGKPAETGQ

Variants of B1 are the subject of one assay. Briefly: SEC-MALS. To be noted: with itself.
For the variant chain 1 Y24A E29A, the screen value was determined as 55 kD.

Regarding chain 1 L42A, the screen value amounted to 55 kD.

As for chain 1 L35A, the screen value amounted to 55 kD.

On to chain 1 L49A, for which the screen value was found to be 55 kD.

For chain 1 L28A, the screen value was determined as 55 kD.

The variants in another assay derive from B2. Briefly: SEC-MALS. Conditions: with GRF7 (14-3-3ν), free GRF7 peak marked 60 kD.
As to chain 1 L35A, the screen value is 116 kD.

On to chain 1 L49A, for which the screen value was 168 kD.

For chain 1 Y24A E29A, the screen value was found to be 117 kD.

On to chain 1 L42A, for which the screen value stood at 117 kD.
